Consider 1 molecule from publication doi:10.1101/2022.01.11.475884 (bioRxiv, 2022).

For this assay, the target named is T1, purified Mfn2 (human, UniProt O95140 1-757).
T1 sequence (looked up): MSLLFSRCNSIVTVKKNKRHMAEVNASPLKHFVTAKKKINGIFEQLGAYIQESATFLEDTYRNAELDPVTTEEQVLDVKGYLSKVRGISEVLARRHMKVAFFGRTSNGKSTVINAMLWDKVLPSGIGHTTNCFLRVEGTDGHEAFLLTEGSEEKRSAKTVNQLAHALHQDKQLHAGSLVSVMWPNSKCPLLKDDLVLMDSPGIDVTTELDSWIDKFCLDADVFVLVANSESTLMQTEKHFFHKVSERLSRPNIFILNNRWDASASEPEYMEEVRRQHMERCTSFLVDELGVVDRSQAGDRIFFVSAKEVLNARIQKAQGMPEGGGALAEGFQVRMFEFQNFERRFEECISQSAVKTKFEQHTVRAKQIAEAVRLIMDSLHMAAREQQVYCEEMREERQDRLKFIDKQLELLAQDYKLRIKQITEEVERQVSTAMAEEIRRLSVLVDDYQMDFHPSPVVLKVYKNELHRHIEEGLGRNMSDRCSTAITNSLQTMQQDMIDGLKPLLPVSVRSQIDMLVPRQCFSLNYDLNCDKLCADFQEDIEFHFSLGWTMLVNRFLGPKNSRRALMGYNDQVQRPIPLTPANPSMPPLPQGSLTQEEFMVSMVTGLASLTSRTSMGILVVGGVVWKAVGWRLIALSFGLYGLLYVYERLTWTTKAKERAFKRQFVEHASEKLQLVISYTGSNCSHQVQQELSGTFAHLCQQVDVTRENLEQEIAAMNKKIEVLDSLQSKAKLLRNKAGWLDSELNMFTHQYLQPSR
The assay can be described thus: pull-down.

B1: purified and biotinylated TAK1 (enzyme, human, UniProt O43318 1-606, looked up)
chain: MSTASAASSSSSSSAGEMIEAPSQVLNFEEIDYKEIEVEEVVGRGAFGVVCKAKWRAKDVAIKQIESESERKAFIVELRQLSRVNHPNIVKLYGACLNPVCLVMEYAEGGSLYNVLHGAEPLPYYTAAHAMSWCLQCSQGVAYLHSMQPKALIHRDLKPPNLLLVAGGTVLKICDFGTACDIQTHMTNNKGSAAWMAPEVFEGSNYSEKCDVFSWGIILWEVITRRKPFDEIGGPAFRIMWAVHNGTRPPLIKNLPKPIESLMTRCWSKDPSQRPSMEEIVKIMTHLMRYFPGADEPLQYPCQYSDEGQSNSATSTGSFMDIASTNTSNKSDTNMEQVPATNDTIKRLESKLLKNQAKQQSESGRLSLGASRGSSVESLPPTSEGKRMSADMSEIEARIAATTAYSKPKRGHRKTASFGNILDVPEIVISGNGQPRRRSIQDLTVTGTEPGQVSSRSSSPSVRMITTSGPTSEKPTRSHPWTPDDSTDTNGSDNSIPMAYLTLDHQLQPLAPCPNSKESMAVFEQHCKMAQEYMKVQTEIALLLQRKQELVAELDQDEKDQQNTSRLVQEHKKLLDENKSLSTYYQQCKKQLEVIRSQQQKRQGTS
modifications: biotinylated
Regarding B1, the binding result is recorded as “binds”.
